The series deals with the molecule itself. Description: SEC. (Size exclusion chromatography separates by hydrodynamic size, large species first.)

B1: Bacillus subtilis Zur H89A (natural protein)
chain: not shown
With B1, the binding result was “binds”.

B2: Bacillus subtilis Zur H90A (natural protein)
chain: not shown
Turning to B2, the binding result is recorded as “binds”.

B3: Bacillus subtilis Zur C84S (natural protein)
chain: not shown
For the protein B3, the “stoichiometry N” value stood at 2.

What is called stoichiometry N is a count of units in the complex or per binding partner.

(Values after publication PMC3241647 (Nucleic Acids Research, 2011).)
